According to IntAct's records for PubMed 17187064:

B1: A-type voltage-gated potassium channel KCND3 (Homo sapiens), Q9UK17 (parent)
chain: MAAGVAAWLPFARAAAIGWMPVANCPMPLAPADKNKRQDELIVLNVSGRRFQTWRTTLERYPDTLLGSTEKEFFFNEDTKEYFFDRDPEVFRCVLNFYRTGKLHYPRYECISAYDDELAFYGILPEIIGDCCYEEYKDRKRENAERLMDDNDSENNQESMPSLSFRQTMWRAFENPHTSTLALVFYYVTGFFIAVSVITNVVETVPCGTVPGSKELPCGERYSVAFFCLDTACVMIFTVEYLLRLFAAPSRYRFIRSVMSIIDVVAIMPYYIGLVMTNNEDVSGAFVTLRVFRVFRIFKFSRHSQGLRILGYTLKSCASELGFLLFSLTMAIIIFATVMFYAEKGSSASKFTSIPASFWYTIVTMTTLGYGDMVPKTIAGKIFGSICSLSGVLVIALPVPVIVSNFSRIYHQNQRADKRRAQKKARLARIRVAKTGSSNAYLHSKRNGLLNEALELTGTPEEEHMGKTTSLIESQHHHLLHCLEKTTGLSYLVDDPLLSVRTSTIKNHEFIDEQMFEQNCMESSMQNYPSTRSPSLSSHPGLTTTCCSRRSKKTTHLPNSNLPATRLRSMQELSTIHIQGSEQPSLTTSRSSLNLKADDGLRPNCKTSQITTAIISIPTPPALTPEGESRPPPASPGPNTNIPSIASNVVKVSAL
partner: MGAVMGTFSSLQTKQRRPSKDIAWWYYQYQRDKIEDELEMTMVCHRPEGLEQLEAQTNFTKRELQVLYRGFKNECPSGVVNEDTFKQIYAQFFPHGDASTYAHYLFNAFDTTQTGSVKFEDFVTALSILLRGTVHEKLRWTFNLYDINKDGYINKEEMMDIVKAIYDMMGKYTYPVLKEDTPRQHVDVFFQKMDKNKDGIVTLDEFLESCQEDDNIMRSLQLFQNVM
B2: A-type potassium channel modulatory protein KCNIP1 (Homo sapiens), Q9NZI2 (parent)
chain: B1 partner
partner: B1 chain

Variants of: B1
Conditions: with kcip1_human KCNIP1, Q9NZI2

Row | Variant | effect of a mutation on the interaction
1 | W8E;P10E;A15E | disrupting interaction

Variants of: B2
Conditions: with kcnd3_human KCND3, Q9UK17

Row | Variant | effect of a mutation on the interaction
2 | V134E | disrupting interaction
